Experimental data from patent publication US20210206838A1.

Tests used:
Assay in all cases: cell-based or functional assay
[1] = molecular target: HIV pseudovirus SC05.8C11.2344 (envelope glycoprotein) (HIV)
[2] = molecular target: HIV pseudovirus CNE52 (envelope glycoprotein) (HIV)
[3] = molecular target: HIV pseudovirus Ce1176_A3 (envelope glycoprotein) (HIV)
[4] = molecular target: HIV pseudovirus Du172.17 (envelope glycoprotein) (HIV)
[5] = molecular target: HIV pseudovirus 0260.v5.c36 (envelope glycoprotein) (HIV)
[6] = molecular target: HIV pseudovirus RHPA4259.7 (envelope glycoprotein) (HIV)

| Binder | neutralization IC50 [1] [µg/mL] | neutralization IC80 [1] [µg/mL] | neutralization IC50 [2] [µg/mL] | neutralization IC80 [2] [µg/mL] | neutralization IC50 [3] [ng/mL] | neutralization IC80 [3] [µg/mL] | neutralization IC50 [4] [µg/mL] | neutralization IC80 [4] [µg/mL] | neutralization IC50 [5] [µg/mL] | neutralization IC80 [5] [µg/mL] | neutralization IC50 [6] [ng/mL] | neutralization IC80 [6] [µg/mL] |
| --- | --- | --- | --- | --- | --- | --- | --- | --- | --- | --- | --- | --- |
| MS-40 (antibody, V domains shown) VH: QMQLQESGPGLVKPSETLSLTCSVSGASISDSYWSWIRRSPGKGLEWIGYVHKSGDTNYSPSLKSRVNLSLDTSKNQVSLSLVAATAADSGVYYCARTLHGRRIYGIVAFNEWFTYFYMDVWGNGTQVTVSS VL: SDISVAPGQTARISCGEKSLGSRAVQWYQQRAGQAPSLIIYNNQDRPSGIPERFSGSPDSPFGTTATLTITSVEAGDEADYYCHIWDSRVPTKWVFGGGTTLTVLG | 0.014 | 0.05 | 2.22 | 22.2 | 9 | 0.033 | 0.046 | 0.36 | 0.043 | 0.149 | 6 | 0.025 |
| MS-48 (antibody, V domains shown) VH: QMQLQESGPGLVKPSETLSLTCSVSGASISDSYWSWIRRSPGKGLEWIGYVHKSGDTNYSPSLKSRVNLSLDTSKNQVSLSLVAATAADSGKYYCARTLHGRRIYGIVAFNEWFTYFYMDVWGNGTQVTVSS VL: SDISVAPGETARISCGEKSLGSRAVQWYQQRAGQAPSLIIYNNQDRPSGIPERFSGSPDSPFGTTATLTITSVEAGDEADYYCHIWDSRVPTKWVFGGGTTLTVLG | 0.016 | 0.063 | 2.81 | 21.9 | 9 | 0.036 | 0.02 | 0.165 | 0.021 | 0.108 | 13 | 0.034 |
